Test results: PMC7022552, “Structural and Functional Analyses of Human ChaC2 in Glutathione Metabolism” (Biomolecules, 2019)
Where “and” joins values, the source holds several entries; their conditions need not be identical. Identical values can stand only once.

B1: human ChaC1 (enzyme, UniProt Q9BUX1 1-222, looked up)
chain: MKQESAAPNTPPTSQSPTPSAQFPRNDGDPQALWIFGYGSLVWRPDFAYSDSRVGFVRGYSRRFWQGDTFHRGSDKMPGRVVTLLEDHEGCTWGVAYQVQGEQVSKALKYLNVREAVLGGYDTKEVTFYPQDAPDQPLKALAYVATPQNPGYLGPAPEEAIATQILACRGFSGHNLEYLLRLADFMQLCGPQAQDEHLAAIVDAVGTMLPCFCPTEQALALV
notes: human ChaC1, cDNA from the Korean Human Gene Bank, cloned into pET-21a between BamHI and XhoI; source: E. coli C41 (DE3), purified (Ni2+ HiTrap Chelating HP, HiTrap Q HP, Superdex 75 pg)

Assays:
[1] = biological target: human ChaC2 (wild type) (human) (UniProt Q8WUX2); experiment: crystal structure; wild type ChaC2 crystals, hanging drop, 14% PEG 8000, 14% ethylene glycol, 100 mM HEPES pH 7.5, 22 °C; three molecules in the asymmetric unit, each in a crystallographic dimer with a molecule of a nearby asymmetric unit
[2] = biological target: the molecule itself; experiment: SEC; HiLoad 16/600 Superdex 75 pg, 20 mM Tris-HCl pH 7.1, 150 mM NaCl, 5 mM DTT, 2% glycerol, 1 mL/min, calibrated with molecular weight standards

Row | Molecule | stoichiometry N [1] | stoichiometry N [2]
1 | human ChaC2 (wild type) (from UniProt Q8WUX2 1-184) (enzyme) | 2 | –
2 | B1 | – | 2 and 4
